This test concerns the target T1, CD24 (human, UniProt P25063 27-59).
T1 construct: whole, on cells; For MCF-7 and REH cells it says only CD24+; also called human CD24; hCD24
T1 chain (looked up): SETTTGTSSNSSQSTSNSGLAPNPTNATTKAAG
Description: flow cytometry on CD24+ MCF-7 cells, FITC anti-human IgG-Fc secondary. Here is the method:
CD24⁺ MCF-7 cells in 100 μl culture medium at a cell density of 1×10⁶/ml were incubated with 100 μl serially diluted IMM47H and hIgG-Fc (3-fold dilution, starting at 30 μg/ml), respectively, at 4° C. for 1 h. Cells were washed with cold PBS twice, and then incubated with 100 μl FITC-conjugated secondary antibody against human IgG-Fc (Cat #F9512, Sigma) for 45 min. Cells were washed twice and re-suspended in 200 μl PBS. Then, the cells were subject to FACS analysis using a flow cytometer (Merck Millipore, Guava® easyCyte 5HT).

Consider one molecule from US20230110607A1 (IMMUNEONCO BIOPHARMACEUTICALS SHANGHAI, published 2023).

B1: IMM47H (antibody, human IgG1, kappa, V domains shown)
VH: DVQLQESGPGLVKPSETLSLTCTVSGYSITSGYSWHWIRQPPGKGLEWIGYIHYSGSTKYNPSLKSRVTISVDTSKNQFSLKLSSVTAADTAVYYCARGADYALDYWGQRTSVTVSS
VL: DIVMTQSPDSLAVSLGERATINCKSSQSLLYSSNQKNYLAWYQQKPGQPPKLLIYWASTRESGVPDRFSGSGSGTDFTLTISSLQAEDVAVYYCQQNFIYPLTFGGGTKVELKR
notes: also called humanized anti-CD24 antibody
For B1, the binding result is “binds”.
